According to patent publication US20170029530A1 (AbbVie / Abbott, published 2017):
Substitutions are numbered along the chain they refer to. “And” between values parts separate entries of the source, which are not always exact repeats. Equal entries are not always repeated.

T1: mDPEP3 (limits assumed)
T1 construct: also called mouse DPEP3-His; mouse DPEP3 ECD with histidine tag
T1 single chain: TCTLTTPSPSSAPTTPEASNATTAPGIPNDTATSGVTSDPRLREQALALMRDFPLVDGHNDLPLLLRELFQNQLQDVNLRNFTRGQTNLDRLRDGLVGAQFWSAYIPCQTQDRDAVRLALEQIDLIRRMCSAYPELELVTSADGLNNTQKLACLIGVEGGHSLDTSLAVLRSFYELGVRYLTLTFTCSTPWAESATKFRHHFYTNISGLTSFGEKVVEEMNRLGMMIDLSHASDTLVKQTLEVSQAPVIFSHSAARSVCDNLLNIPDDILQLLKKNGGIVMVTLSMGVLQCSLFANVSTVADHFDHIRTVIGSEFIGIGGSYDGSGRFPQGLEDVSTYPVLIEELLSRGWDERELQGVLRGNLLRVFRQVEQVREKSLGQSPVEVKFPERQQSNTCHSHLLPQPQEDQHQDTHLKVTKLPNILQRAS

T2: rat DPEP3 ECD with histidine tag (rat, UniProt Q5U2X4 36-459, limits assumed)
T2 construct: also called rDPEP3-His; ratDPEP3-His; not shown: histidine tag
T2 sequence: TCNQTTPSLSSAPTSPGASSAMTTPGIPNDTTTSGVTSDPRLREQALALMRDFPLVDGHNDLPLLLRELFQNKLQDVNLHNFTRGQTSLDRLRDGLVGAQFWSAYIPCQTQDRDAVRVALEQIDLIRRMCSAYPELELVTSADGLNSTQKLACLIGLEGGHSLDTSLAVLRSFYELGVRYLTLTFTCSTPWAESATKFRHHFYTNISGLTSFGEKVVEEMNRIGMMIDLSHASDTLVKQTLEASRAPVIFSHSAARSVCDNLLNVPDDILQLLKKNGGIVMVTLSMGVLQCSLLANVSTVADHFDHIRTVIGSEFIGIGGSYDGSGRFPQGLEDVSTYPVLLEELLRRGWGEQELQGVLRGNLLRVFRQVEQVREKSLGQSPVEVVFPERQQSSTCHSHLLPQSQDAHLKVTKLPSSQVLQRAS

T3: hDPEP3-ECD-His (human, UniProt Q9H4B8 36-463)
T3 construct: also called hDPEP3-His; monomeric hDPEP3-His antigen; not shown: histidine tag
T3 sequence: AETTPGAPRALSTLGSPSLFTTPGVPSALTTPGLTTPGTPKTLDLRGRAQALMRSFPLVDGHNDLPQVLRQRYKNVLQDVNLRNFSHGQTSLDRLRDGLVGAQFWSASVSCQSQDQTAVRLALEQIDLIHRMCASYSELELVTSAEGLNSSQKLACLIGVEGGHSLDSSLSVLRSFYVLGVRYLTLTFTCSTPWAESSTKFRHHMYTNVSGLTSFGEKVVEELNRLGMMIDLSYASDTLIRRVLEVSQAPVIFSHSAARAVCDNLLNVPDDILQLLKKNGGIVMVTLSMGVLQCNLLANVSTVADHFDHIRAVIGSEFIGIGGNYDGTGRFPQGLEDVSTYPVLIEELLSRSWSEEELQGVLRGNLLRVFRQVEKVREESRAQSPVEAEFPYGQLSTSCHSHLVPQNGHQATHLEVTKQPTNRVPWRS

B1: SC34.83 (antibody, mouse IgG2a, V domains shown)
VH: QVQLQQSGAELVKPGASVKISCKASGYAFSHSWMNWVKQRPGKGLEWIGRIYPGDGDINYNGKFKGKATLTADKSSSTAYMQLSSLTSEDSAVYFCARRGPSYNNYCFDYWGQGTTLTVSS
VL: QIVLIQSPAIMSASPGENVTMTCSASSSVSYMHWYQQKSGTSPKRWIYDTSKLASGVPARFSGSGSGTSYSLTISSMEAEDAATYYCQQWNSYPPTFGAGTKLELK
B2: SC34.63 (antibody, mouse IgG1)
light chain: DIVMSQSPSSLAVSVGEKVTMSCKSSQSLLYSKYQKNYLAWYQQKPGQSPKLLIYWASTRESGVPDRFTGSESGTDFTLTISSVKAEDLAVYYCQQYYRYPLTVGAGTKLELK
heavy chain: QVQLQQSGVELARPGASVKLSCKASGYTFTSYGIDWVKQRTGQGLEWIGETYPGRGDTYYNENFKGKATLTTDKSSSTAFLQLSSLTSEDSAVYFCARVHDYGSWFPYWGQGTLVTVSA
B3: SC34.91 (antibody, mouse IgG1, V domains shown)
VH: B2 heavy chain with V9A, T30R, G33A, D35S, T51I, R55S, F80Y, L81M, Y102N
VL: B2 light chain with K33T, Y42F, E72G, V104F
B4: SC34.76 (antibody, mouse IgG1, V domains shown)
VH: QVQLQQSGAELARPGASVKLSCKTSEYTFTSYAINWVKQRTGQGLEWIGEVYPGSGNTYYNEKFKGKAILTTDKSSSTGYMQLSNLTSEDSAVYFCARVHDYGSWFPYWGQGTLVTVSA
VL: B2 light chain with K18R, S22N, L30F, K33R, E72G, V104F
B5: SC34.7 (antibody, mouse IgG1, V domains shown)
VH: QVQVQQSGAELARPGASVKLSCKASGYTFTSYGINWVKQRTGQGLEWIGEIYPGSGNAYYNEKFKVKAKLTTDNSSRTAYMQLINLTSEDSAVYFCARVHDYGSWFPYWGQGTLVTVSA
VL: B2 light chain with K33R, E72G, Q95H, V104F
notes: also called SC34.07
B6: SC34.95 (antibody, mouse IgG1)
light chain: B2 light chain with M4L, Y31N, K33R, Y34D, Q35R, Y42C, L52V, L53M, E72G, R99S
heavy chain: QVQVKQSGAELARPGASVKLSCKASGYTFTSYAINWLKQRTGQGLEWIGEIYPGSGNTYYNESFKNKATLTTDKSSTTAYMQLNSLTSEDSAVYFCARVHDYGSWFPYWGQGTLVTVSA
B7: SC34.27 (antibody, mouse IgG1, V domains shown)
VH: B2 heavy chain with V9A, T30R, D35N, T51I, T58V, F80Y, L81M
VL: B2 light chain with K33R, Y34N, E72G, S82N, Q95H, V104F
B8: SC34.20 (antibody, mouse IgG1, V domains shown)
VH: QVQLQQSGSELARPGASVKLSCKASGYTFRSYAISWVRQRTGQGLEWIGEIYPESGNTDYNAQFKGKATLTTDKSSSTAYMQLSSLTSEASAVYFCARVHDYGSWFPYWGQGTLVTVSA
VL: B2 light chain with A12T, K33T, Y42F, E72G, V104F
B9: SC34.86 (antibody, mouse IgG1, V domains shown)
VH: B4 VH with T24A, E26G, A33T, N35T, V51I, I69T, G79A, N85S
VL: B2 light chain with I2T, M21L, K33R, I54L, E72G, Y97H, V104F
B10: SC34.24 (antibody, mouse IgG1, V domains shown)
VH: B4 VH with A9P, T24A, N35T, T41A, V51I, N57D, I69T, G79A, N85S
VL: B2 light chain with S22N, K33R, E72G, V104F
B11: SC34.67 (antibody, mouse IgG2a, V domains shown)
VH: QVQLQQSGAELARPGASVRLSCKASGYTFTSYGINWVKQRTGQGLEWIGEIYPGSGDSYYNKTFKGKAILTTDKSSSTAYMQLSSLTPEDSAVYFCARVHDYGSWFPYWGPGALVTVSA
VL: DMVMSQSPSSLAVSVGEKVALSCKSSQSLLHSRDQKNYLAWYQQKPGQSPKLLIHWASTRESGVPARFTGSGSGTDFTLTISSVKAEDLAVYYCQQSYRYPLTFGAGTKLELK
B12: SC34.4 (antibody, mouse IgG2b, V domains shown)
VH: B4 VH with T24A, E26G, A33G, V51I, T58I, S77N, G79A, N85S, G110A
VL: DIVMSQSPSSLTVSVGEKVTMSCKSSQSLLYSRNQKNYLAWYQQKPGQSPKLLIYWASTRDSGVPDRFTGTGSGTDFSLTISSVKTEDLAVYYCHQHYRYPLTFGAGTKLELK
notes: also called SC34.04

Each binder was assayed against T4, hDPEP2 ECD with histidine tag (human, UniProt Q9H4A9 33-463) (assay: ELISA, coated antigen).
T4 construct: also called hDPEP2-His; not shown: histidine tag
T4 sequence (Q9H4A9 33-463): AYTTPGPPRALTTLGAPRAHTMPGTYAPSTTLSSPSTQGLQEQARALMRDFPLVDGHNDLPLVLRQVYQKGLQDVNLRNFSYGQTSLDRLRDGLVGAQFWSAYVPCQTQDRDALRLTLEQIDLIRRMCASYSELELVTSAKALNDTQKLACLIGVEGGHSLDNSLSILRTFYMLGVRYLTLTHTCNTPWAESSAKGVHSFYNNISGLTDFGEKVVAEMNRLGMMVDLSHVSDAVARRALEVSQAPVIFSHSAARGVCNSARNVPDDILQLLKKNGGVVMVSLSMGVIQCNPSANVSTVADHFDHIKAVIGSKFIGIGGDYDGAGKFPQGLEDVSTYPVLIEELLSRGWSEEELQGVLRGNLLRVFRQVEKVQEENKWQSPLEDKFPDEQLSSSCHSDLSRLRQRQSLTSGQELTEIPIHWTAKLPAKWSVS
Experimental: (§1) The anti-DPEP3 antibodies were screened by ELISA for cross-reactivity with mouse, rat and cynomolgus DPEP3 and for cross reactivity to hDPEP2, the closest DPEP3 family member. ELISA was conducted as follows. Plates were coated with purified mouse, rat or cynomolgus DPEP3-His or hDPEP2-His at 0.3 μg/mL in 0.2 M carbonate-bicarbonate buffer, pH 9.4 overnight at 4° C. The protein solution was removed and the wells were blocked with 1% (w/v) BSA in PBS (PBSA), 100 μL/well for 1 hour at 37° C. Anti-DPEP3 antibody or a mouse isotype control antibody was then added at 1 μg/mL in 50 μL PBSA for 1 hour at room temperature. After washing with water, 50 μL/well HRP-labeled goat anti-mouse IgG antibody diluted 1:10,000 in PBSA was added for 30 min at room temperature. The plates were washed and developed by the addition of 40 μL/well of the TMB substrate solution (Thermo Scientific) at room temperature. An equal volume of 0.2 M H₂SO₄ was added to stop substrate development. The samples were then analyzed by spectrophotometer at OD 450. […] The cross reactivity results for exemplary DPEP3-specific antibodies can be seen in FIG. 4.
B1: no binding (tested: 1 ug/mL).
B2: no binding (tested: 1 ug/mL).
B3: no binding (tested: 1 ug/mL).
B4: no binding (tested: 1 ug/mL).
B5: no binding (tested: 1 ug/mL).
B6: no binding (tested: 1 ug/mL).
B7: no binding (tested: 1 ug/mL).
B8: no binding (tested: 1 ug/mL).
B9: no binding (tested: 1 ug/mL).
B10: no binding (tested: 1 ug/mL).
B11: no binding (tested: 1 ug/mL).
B12: no binding (tested: 1 ug/mL).

Biological target: T1, mDPEP3
Assay: ELISA, coated antigen
Experimental: as §1
B2: no binding (tested: 1 ug/mL).
B3: no binding (tested: 1 ug/mL).
B4: no binding (tested: 1 ug/mL).
B5: no binding (tested: 1 ug/mL).
B6: no binding (tested: 1 ug/mL).
B7: no binding (tested: 1 ug/mL).
B8: no binding (tested: 1 ug/mL).
B9: no binding (tested: 1 ug/mL).
B10: no binding (tested: 1 ug/mL).
B11: no binding (tested: 1 ug/mL).
B12: no binding (tested: 1 ug/mL).

Each binder was assayed against T2, rat DPEP3 ECD with histidine tag (assay: ELISA, coated antigen).
Experimental: as §1
B2: no binding (tested: 1 ug/mL).
B3: no binding (tested: 1 ug/mL).
B4: no binding (tested: 1 ug/mL).
B5: no binding (tested: 1 ug/mL).
B7: no binding (tested: 1 ug/mL).
B8: no binding (tested: 1 ug/mL).
B9: no binding (tested: 1 ug/mL).
B10: no binding (tested: 1 ug/mL).
B11: no binding (tested: 1 ug/mL).

The binders below were run against T3, hDPEP3-ECD-His (assay: BLI ForteBio RED, 200 nM hDPEP3-His, estimated grade).
Experimental: The affinity of the antibodies for hDPEP3-His was qualitatively determined from kinetics curves generated with a ForteBio RED as follows. Anti-DPEP3 antibodies were immobilized onto anti-mouse Fc capture biosensors with a contact time of 3 mins. and a flow rate of 1000 rpm. The captured antibody loading from baseline was constant at 0.3-1 units. Following antibody capture and 30 second baseline, the biosensors were dipped into a 200 nM solution of hDPEP3-His for a 4 min. association phase followed by a 3 min. dissociation phase at a shaking rate of 1000 rpm. The biosensors were regenerated by dipping into 10 mM glycine, pH 1.7 following each cycle. The data was processed by subtracting a control mouse IgG surface response from the specific antibody response and data was truncated to the association and dissociation phase. The association and dissociation curves were used to qualitatively estimate the affinities of selected antibodies. […] A designation of “ND” means that the estimated KD was not determined.
With B1 the Kd was > 10 nM.
With B2 the Kd was < 5 nM.
For B3, the Kd was < 5 nM.
In the case of B4, the Kd is reported as < 5 nM.
In the case of B5, the Kd is reported as ≥ 5 nM and ≤ 10 nM.
For B6, the Kd was < 5 nM.
With B7 the Kd was < 5 nM.
B8 was tested, and the Kd was ≥ 5 nM and ≤ 10 nM.
For B9, the Kd was < 5 nM.
B10 was tested, and the Kd was < 5 nM.
With B11 the Kd was < 5 nM.
In the case of B12, the Kd is reported as ≥ 5 nM and ≤ 10 nM.
